# The supplement of paper PMC10567573
# B1: FOXJ1 (parent)
# chain: SAIYKWITDNFCYFRHADPTWQNS
# Variants of: B1
# Assay: protein stability index of a GFP-peptide fusion (GPS, HEK-293T) (PSI 1-6); higher = more stable
# Details: c terminus: a fixed tail appended
# 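Note: lentivirally expressed fusions sorted by FACS into six bins by GFP to DsRed ratio, PSI derived from sequencing read proportions per bin multiplied by bin number.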
row,Variant,protein stability index
1,SAIYKWITDNFCYFRIADPTWQNS [H16I],1.75
2,SAIYKWITDNFCYFRFADPTWQNS [H16F],3.57
3,SAIYKWITDNFCYFRWADPTWQNS [H16W],1.82
4,SAIYKWITDNFCYFRLADPTWQNS [H16L],4.65
5,SAIYKWITDNFCYFRSADPTWQNS [H16S],3.5
6,SAIYKWITDNFCYFRHADPTWFNS [Q22F],3.37
7,SAIYKWITDNFCYFRHADPTWMNS [Q22M],3.06
8,SAIYKWITDNFCYFRHADPTWDNS [Q22D],2.56
9,SAIYKWITDNFCYFRHADPTWGNS [Q22G],2.93
10,SAIYKWITDNFCYFRHADPTWSNS [Q22S],4.33
11,SAFYKWITDNFCYFRHADPTWQNS [I3F],1.87
12,SACYKWITDNFCYFRHADPTWQNS [I3C],4.05
13,SAPYKWITDNFCYFRHADPTWQNS [I3P],2.06
14,SALYKWITDNFCYFRHADPTWQNS [I3L],2.36
15,SANYKWITDNFCYFRHADPTWQNS [I3N],1.6
16,SARYKWITDNFCYFRHADPTWQNS [I3R],1.78
17,SAIQKWITDNFCYFRHADPTWQNS [Y4Q],2.97
18,SAIDKWITDNFCYFRHADPTWQNS [Y4D],2.24
19,SAINKWITDNFCYFRHADPTWQNS [Y4N],2.71
20,SAICKWITDNFCYFRHADPTWQNS [Y4C],2.04
21,SAITKWITDNFCYFRHADPTWQNS [Y4T],1.52
22,SAIPKWITDNFCYFRHADPTWQNS [Y4P],2.27
23,SAIHKWITDNFCYFRHADPTWQNS [Y4H],2.58
24,SAIIKWITDNFCYFRHADPTWQNS [Y4I],2.52

row,Variant,protein stability index
1,SAIYKWITDNFCYFRHADPTWQGS [N23G],4.27
2,SAIYKWITDNFCYFRHADPTWQWS [N23W],3.47
3,SAIYKWITDNFCYFRHADPTWQAS [N23A],2.99
4,SAIYKWITDNFCYFRHADPTWQKS [N23K],2.13
5,SAIYKWITDNFCYFRHADPTWQVS [N23V],2.39
6,SAIYKWITDNFCYFRHADPTWQDS [N23D],3.65
7,SAIYKWITDNFCYFRHADPTWQES [N23E],3.59
8,SAIYPWITDNFCYFRHADPTWQNS [K5P],1.26
9,SAIYHWITDNFCYFRHADPTWQNS [K5H],3.79
10,SAIYWWITDNFCYFRHADPTWQNS [K5W],2.78
11,SAIYTWITDNFCYFRHADPTWQNS [K5T],2.46
12,SAIYSWITDNFCYFRHADPTWQNS [K5S],3.33
13,SAIYMWITDNFCYFRHADPTWQNS [K5M],3
14,SAIYAWITDNFCYFRHADPTWQNS [K5A],2.97
15,SAIYIWITDNFCYFRHADPTWQNS [K5I],3.27
16,SAIYCWITDNFCYFRHADPTWQNS [K5C],2.24
17,SAIYFWITDNFCYFRHADPTWQNS [K5F],2.91
18,SAIYKYITDNFCYFRHADPTWQNS [W6Y],3.11
19,SAIYKPITDNFCYFRHADPTWQNS [W6P],2.13
20,SAIYKFITDNFCYFRHADPTWQNS [W6F],2.43
21,SAIYKDITDNFCYFRHADPTWQNS [W6D],2.12
22,SAIYKQITDNFCYFRHADPTWQNS [W6Q],2.07
23,SAIYKNITDNFCYFRHADPTWQNS [W6N],2.71
24,SAIYKHITDNFCYFRHADPTWQNS [W6H],2.2

row,Variant,protein stability index
1,SAIYKWITDNFCYYRHADPTWQNS [F14Y],2.97
2,SAIYKWITDNFCYCRHADPTWQNS [F14C],3.92
3,SAIYKWITDNFCYSRHADPTWQNS [F14S],2.13
4,SAIYKWITDNFCYERHADPTWQNS [F14E],2.23
5,SAIYKWITDNFCYIRHADPTWQNS [F14I],4.22
6,SAIYKWITDNFCYDRHADPTWQNS [F14D],2.64
7,SAIYKWITDGFCYFRHADPTWQNS [N10G],1.42
8,SAIYKWITDDFCYFRHADPTWQNS [N10D],1.58
9,SAIYKWITDFFCYFRHADPTWQNS [N10F],1.81
10,SAIYKWITDKFCYFRHADPTWQNS [N10K],2.34
11,SAIYKWITDWFCYFRHADPTWQNS [N10W],2.06
12,SAIYKWITDNFCYFCHADPTWQNS [R15C],3.16
13,SAIYKWITDNFCYFYHADPTWQNS [R15Y],2.33
14,SAIYKWITDNFCYFWHADPTWQNS [R15W],2.97
15,SAIYKWITDNFCYFIHADPTWQNS [R15I],2.32
16,SAIYKWITDNFCYFNHADPTWQNS [R15N],3.46
17,SAIYKWITDNFCYFTHADPTWQNS [R15T],1.69
18,SAIYKWITDNFCYFRHRDPTWQNS [A17R],3.34
19,SAIYKWITDNFCYFRHIDPTWQNS [A17I],2.91
20,SAIYKWITDNFCYFRHSDPTWQNS [A17S],2.61
21,SAIYKWITDNFCYFRHKDPTWQNS [A17K],2.1
22,SAIYKWITDNFCYFRHGDPTWQNS [A17G],1.74
23,SAIYKWITDNFCYFRHNDPTWQNS [A17N],3.14
24,SAIYKWITDNFCYFRHPDPTWQNS [A17P],3.54

row,Variant,protein stability index
1,SPIYKWITDNFCYFRHADPTWQNS [A2P],3.53
2,SQIYKWITDNFCYFRHADPTWQNS [A2Q],2.49
3,SYIYKWITDNFCYFRHADPTWQNS [A2Y],2.04
4,SLIYKWITDNFCYFRHADPTWQNS [A2L],2.45
5,SCIYKWITDNFCYFRHADPTWQNS [A2C],3.04
6,SAIYKWITDNWCYFRHADPTWQNS [F11W],2.53
7,SAIYKWITDNRCYFRHADPTWQNS [F11R],3.03
8,SAIYKWITDNKCYFRHADPTWQNS [F11K],2.08
9,SAIYKWITDNECYFRHADPTWQNS [F11E],1.89
10,SAIYKWITDNDCYFRHADPTWQNS [F11D],1.49
11,SAIYKWITDNMCYFRHADPTWQNS [F11M],3.18
12,SAIYKWITDNSCYFRHADPTWQNS [F11S],3.59
13,SAIYKWITDNHCYFRHADPTWQNS [F11H],2.71
14,SAIYKWITDNVCYFRHADPTWQNS [F11V],3.51
15,SAIYKWITDNFCYFRHADETWQNS [P19E],3.59
16,SAIYKWITDNFCYFRHADSTWQNS [P19S],2.63
17,SAIYKWITDNFCYFRHADITWQNS [P19I],3.63
18,SAIYKWITDNFCYFRHADVTWQNS [P19V],3.02
19,SAIYKWITDNFCYFRHADCTWQNS [P19C],2.7
20,SAIYKWITDNFCYFRHADQTWQNS [P19Q],3.21
21,SAIYKWITDNFCYFRHADMTWQNS [P19M],4.18
22,SAIYKWITDNFCYFRHADKTWQNS [P19K],3.4
